Patent publication US20190225669A1 (ACCELERON PHARMA, published 2019)

What was measured:
activin B [1] = biological target: T1, activin B (UniProt P09529 293-407); assay: Biacore SPR
T1 sequence (looked up): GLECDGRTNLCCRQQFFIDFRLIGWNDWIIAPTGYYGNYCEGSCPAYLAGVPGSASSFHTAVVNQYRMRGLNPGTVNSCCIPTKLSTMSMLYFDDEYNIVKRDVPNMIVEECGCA
Experimental: (§1) Ligands were injected and allowed to flow over the captured receptor protein.

GDF8 [2] = biological target: T2, GDF8 (UniProt O14793 267-375); assay: Biacore SPR
T2 construct: also called myostatin
T2 sequence (looked up): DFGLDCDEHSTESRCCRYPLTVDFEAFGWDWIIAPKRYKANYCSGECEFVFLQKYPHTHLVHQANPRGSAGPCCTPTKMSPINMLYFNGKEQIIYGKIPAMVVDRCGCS
Experimental: as §1

GDF11 [3] = biological target: T3, GDF11 (UniProt O95390 299-407); assay: Biacore SPR
T3 construct: also called BMP11
T3 sequence (looked up): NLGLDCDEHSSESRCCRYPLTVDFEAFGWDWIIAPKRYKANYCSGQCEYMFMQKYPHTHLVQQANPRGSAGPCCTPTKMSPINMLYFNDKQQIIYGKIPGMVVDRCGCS
Experimental: as §1

activin A [4] = biological target: T4, activin A (UniProt P08476 311-426); assay: Biacore SPR
T4 sequence (looked up): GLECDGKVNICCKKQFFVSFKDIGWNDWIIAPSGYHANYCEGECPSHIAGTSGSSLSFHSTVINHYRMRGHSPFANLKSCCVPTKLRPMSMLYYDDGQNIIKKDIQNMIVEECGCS
Experimental: as §1

BMP5 [5] = biological target: T5, BMP5 (UniProt P22003 317-454, limits assumed); assay: Biacore SPR
T5 sequence (looked up): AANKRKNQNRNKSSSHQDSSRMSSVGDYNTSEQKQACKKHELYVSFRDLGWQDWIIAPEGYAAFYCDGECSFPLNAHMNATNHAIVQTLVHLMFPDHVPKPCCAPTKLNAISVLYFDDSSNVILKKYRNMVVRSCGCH
Experimental: as §1

GDF6 = biological target: T6, GDF6 (UniProt Q6KF10 336-455, limits assumed); assay: Biacore SPR
T6 construct: also called BMP13
T6 sequence (looked up): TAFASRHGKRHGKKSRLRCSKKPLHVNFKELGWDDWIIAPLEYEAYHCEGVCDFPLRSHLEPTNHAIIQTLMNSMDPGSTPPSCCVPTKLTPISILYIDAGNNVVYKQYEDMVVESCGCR
Experimental: as §1

GDF3 [6] = biological target: T7, GDF3 (UniProt Q9NR23 251-364); assay: Biacore SPR
T7 sequence (looked up): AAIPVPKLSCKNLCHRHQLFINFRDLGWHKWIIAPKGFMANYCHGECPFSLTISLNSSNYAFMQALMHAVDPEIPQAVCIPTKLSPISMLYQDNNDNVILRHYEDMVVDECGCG
Experimental: as §1

BMP10 [7] = biological target: T8, BMP10 (UniProt O95393 317-424); assay: Biacore SPR
T8 sequence (looked up): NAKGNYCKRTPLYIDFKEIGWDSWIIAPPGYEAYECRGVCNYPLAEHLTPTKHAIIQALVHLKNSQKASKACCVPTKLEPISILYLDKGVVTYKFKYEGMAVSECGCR
Experimental: as §1

BMP15 = biological target: T9, BMP15 (UniProt O95972 268-392); assay: Biacore SPR
T9 construct: also called GDF9b
T9 sequence (looked up): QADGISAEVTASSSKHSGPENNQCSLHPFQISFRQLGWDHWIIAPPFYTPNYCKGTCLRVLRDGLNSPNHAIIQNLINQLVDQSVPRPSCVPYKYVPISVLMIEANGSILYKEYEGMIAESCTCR
Experimental: A Biacore™-based binding assay was used to compare ligand binding selectivity of the BMPRII-Fc:ALK2-Fc heterodimeric complex described above with that of BMPRII-Fc and ALK2-Fc homodimeric complexes. […] Ligands were injected and allowed to flow over the captured receptor protein.

BMP9 = biological target: T10, BMP9 (UniProt Q9UK05 320-429); assay: Biacore SPR; kinetics indeterminate (transient)
T10 construct: also called GDF2
T10 sequence (looked up): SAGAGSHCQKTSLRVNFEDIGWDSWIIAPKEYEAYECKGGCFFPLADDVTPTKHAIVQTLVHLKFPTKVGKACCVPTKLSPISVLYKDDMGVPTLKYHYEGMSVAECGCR
Experimental: as §1

activin B [8] = biological target: T1, activin B; assay: Biacore SPR; remark: listed apart in the source
Experimental: as §1

GDF8 [9] = biological target: T2, GDF8; assay: Biacore SPR; remark: listed apart in the source
Experimental: as §1

GDF11 [10] = biological target: T3, GDF11; assay: Biacore SPR; remark: listed apart in the source
Experimental: as §1

activin A [11] = biological target: T4, activin A; assay: Biacore SPR; remark: listed apart in the source
Experimental: as §1

BMP5 [12] = biological target: T5, BMP5; assay: Biacore SPR; remark: listed apart in the source
Experimental: as §1

BMP6 = biological target: T11, BMP6 (UniProt P22004 382-513, limits assumed); assay: Biacore SPR
T11 sequence (looked up): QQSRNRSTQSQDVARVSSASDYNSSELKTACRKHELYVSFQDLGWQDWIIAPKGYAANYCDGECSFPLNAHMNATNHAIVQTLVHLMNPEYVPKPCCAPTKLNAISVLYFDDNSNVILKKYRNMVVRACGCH
Experimental: as §1

GDF3 [13] = biological target: T7, GDF3; assay: Biacore SPR; remark: listed apart in the source
Experimental: as §1

BMP10 [14] = biological target: T8, BMP10; assay: Biacore SPR; remark: listed apart in the source
Experimental: as §1

B1: ALK2-Fc homodimer (Fc fusion, UniProt Q04771 21-123, looked up, not shown: a dimerising Fc or GST)
chain: MEDEKPKVNPKLYMCVCEGLSCGNEDHCEGQQCFSSLSINDGFHVYQKGCFQVYEQGKMTCKTPPSPGQAVECCQGDWCNRNITAQLPTKGKSFPGTQNFHLE
notes: extracellular domain
B1: no binding (activin B [1]); no binding (GDF8 [2]); no binding (GDF11 [3]). B1: no binding (activin A [4]); no binding (BMP5 [5]); no binding (GDF6). B1: no binding (GDF3 [6]); no binding (BMP10 [7]); no binding (BMP15).

B2: ActRIIB-Fc:ALK7-Fc heterodimer (Fc fusion)
chain 1: GRGEAETRECIYYNANWELERTNQSGLERCEGEQDKRLHCYASWRNSSGTIELVKKGCWLDDFNCYDRQECVATEENPQVYFCCCEGNFCNERFTHLPEAGGPEVTYEPPPTAPTGGGTHTCPPCPAPELLGGPSVFLFPPKPKDTLMISRTPEVTCVVVDVSHEDPEVKFNWYVDGVEVHNAKTKPREEQYNSTYRVVSVLTVLHQDWLNGKEYKCKVSNKALPAPIEKTISKAKGQPREPQVYTLPPSRKEMTKNQVSLTCLVKGFYPSDIAVEWESNGQPENNYKTTPPVLKSDGSFFLYSKLTVDKSRWQQGNVFSCSVMHEALHNHYTQKSLSLSPGK
chain 2: GLKCVCLLCDSSNFTCQTEGACWASVMLTNGKEQVIKSCVSLPELNAQVFCHSSNNVTKTECCFTDFCNNITLHLPTASPNAPKLGPMETGGGTHTCPPCPAPELLGGPSVFLFPPKPKDTLMISRTPEVTCVVVDVSHEDPEVKFNWYVDGVEVHNAKTKPREEQYNSTYRVVSVLTVLHQDWLNGKEYKCKVSNKALPAPIEKTISKAKGQPREPQVYTLPPSREEMTKNQVSLTCLVKGFYPSDIAVEWESNGQPENNYDTTPPVLDSDGSFFLYSDLTVDKSRWQQGNVFSCSVMHEALHNHYTQKSLSLSPG
notes: C-terminal Lys optional; also called ActRIIB-Fc:ALK7 heterodimer
Binder B2 has a Kd (BMP9) greater than 1.4 nM, a Kd (activin B [8]) of 0.017 nM and a koff (activin B [8]) of 0.0002 s⁻¹. For the same binder, the kon (activin B [8]) was 1.2e+07 M⁻¹ s⁻¹, the Kd (GDF8 [9]) was 0.27 nM and the koff (GDF8 [9]) was 0.001 s⁻¹. It also gave a kon (GDF8 [9]) of 3.7e+06 M⁻¹ s⁻¹, a Kd (GDF11 [10]) of 0.008 nM and a koff (GDF11 [10]) of 0.00075 s⁻¹. The kon (GDF11 [10]) was 9.5e+07 M⁻¹ s⁻¹, the Kd (activin A [11]) was 0.043 nM and the koff (activin A [11]) was 0.0019 s⁻¹. It also gave a kon (activin A [11]) of 4.4e+07 M⁻¹ s⁻¹, a Kd (BMP5 [12]) of 57 nM and a koff (BMP5 [12]) of 0.0085 s⁻¹. It also gave a kon (BMP5 [12]) of 150000 M⁻¹ s⁻¹, a Kd (BMP6) of 5.3 nM and a koff (BMP6) of 0.0063 s⁻¹. For the same binder, the kon (BMP6) was 1.2e+06 M⁻¹ s⁻¹, the Kd (GDF3 [13]) was 4.5 nM and the koff (GDF3 [13]) was 0.01 s⁻¹. For the same binder, the kon (GDF3 [13]) was 2.3e+06 M⁻¹ s⁻¹, the Kd (BMP10 [14]) was 0.19 nM and the koff (BMP10 [14]) was 0.0028 s⁻¹. It also gave a kon (BMP10 [14]) of 1.5e+07 M⁻¹ s⁻¹.
